Assay [1] has as its target T1, CD16a/FCgRIIIa (F158 variant) on HEK293 cells, Terbium-labelled (UniProt P08637 17-254, limits assumed, Terbium donor dye).
T1 construct: whole, on cells; also called cellular CD16a
Description: HTRF competition vs IgG-d2 on HEK293 cells. How it is done:
Binding to cellular CD16a/FCgRIIIa (F158 variant) was determined through competition with IgG for binding to CD16a receptors expressed on HEK293 cells.
The experimental procedure followed the manufacturer's instructions detailed in the product information for the CD16 (FCγRIIIa) kit (Cisbio-6FR3APAG). […] Bicycle peptides were dispensed using Echo compound handler at a top concentration of 20 μM. The competing unlabeled antibodies and bicyclic peptides were added in a three-fold dilution series in Tag-lite buffer into PerkinElmer-ProxiPlate-384 Plus.
The HEK293 cell expressing Terbium-labelled CD16a were thawed and washed in PBS and added to the wells of PerkinElmer-ProxiPlate-384 Plus containing the competitor compounds. […] The data was plotted in Graph pad prism and IC50-values were determined to indicate unlabeled antibody or bicyclic peptide competition for cellular binding to the CD16a receptor.

For assay [2], the target named is T2, human CD16a V176 variant, biotinylated (human, UniProt P08637 17-208, N-terminally biotinylated in-house).
T2 construct: supplier is told for the AlphaScreen assay only; also called V Variant; FcγRIIIA V variant
T2 sequence (P08637 other isoform, or with tags, fused parts or gaps mutant limits assumed): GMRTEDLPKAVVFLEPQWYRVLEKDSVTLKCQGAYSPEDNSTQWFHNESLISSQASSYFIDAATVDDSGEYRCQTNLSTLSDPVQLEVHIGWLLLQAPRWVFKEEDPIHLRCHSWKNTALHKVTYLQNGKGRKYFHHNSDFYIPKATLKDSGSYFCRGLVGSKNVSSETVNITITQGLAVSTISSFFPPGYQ
Description: SPR. How it is done:
(§1) The SPR analysis was run at 25° C. at a flow rate of 50 μl/min with 60 seconds association and dissociation between 60 and 200 seconds. Data were corrected for DMSO excluded volume effects. All data were double-referenced for blank injections and reference surface using standard processing procedures and data processing and kinetic fitting were performed using Scrubber software, version 2.0c (BioLogic Software). Data were fitted using simple 1:1 binding model allowing for mass transport effects where appropriate.
(§2) For analysis of peptide binding, a Biacore 8k+ instrument was used with a CM5 chip (Cytiva). All experiments were carried out at 25° C. Streptavidin was immobilized on all flow cells by standard amine coupling chemistry. The running buffer was HBS-N(Cytiva, 10 mM HEPES, 0.15 M NaCl, pH 7.4) and the flow rate was 10 μl/min. The carboxymethyl dextran surface was activated with a 1:1 ratio of 0.4 M 1-ethyl-3-(3-dimethylaminopropyl) carbodiimide hydrochloride (EDC)/0.1 M N-hydroxy succinimide (NHS) (Cytiva) for 420s. Streptavidin (ProSpec, cat no. PRO-791) was diluted to 0.2 mg/ml in 10 mM sodium acetate pH 4.5 and was injected onto the chip surface for 600 s. Residual activated groups were blocked with a 420 s injection of 1 M ethanolamine (pH 8.5). The final surface density was 2000-3000 RU. Biotinylated CD16a was diluted to 5 μg/ml in HBS-N and was captured on flow cell 2 only of the streptavidin chip at a flow rate of 10 μl/min to 1500-2500 RU. The buffer was then changed to PBS-P+(Cytiva) supplemented with 0.5-2% DMSO. […] The flow rate was 30 μl/min with 100 s association and 400 s dissociation. Data were corrected for DMSO volume exclusion effects. All data were double-referenced against blank injections and reference surface response using standard processing procedures. Data processing and kinetic fitting was performed using Biacore Insight Evaluation Software with Extended Screening and Characterization Extension (Cytiva). Data were fitted using steady state affinity 1:1 binding model to determine KD. Data were fitted using kinetic 1:1 binding model to determine kinetic constants where appropriate.
A general note: SPR reads the build-up and loss of mass on a sensor chip optically.

For assay [3], the target named is T3, human CD16a F176 variant, biotinylated (human, UniProt P08637 17-208, C-terminally biotinylated).
T3 construct: supplier is told for the AlphaScreen assay only; also called F Variant; FcγRIIIA F variant
T3 sequence (P08637 17-208 limits assumed, change not shown): as the sequence (P08637 other isoform, or with tags, fused parts or gaps mutant limits assumed) above, with V160F counted along it
Description: SPR. How it is done:
as §1, §2

The target in assay [4] is T2, human CD16a V176 variant, biotinylated. Description: AlphaScreen competition vs mouse IgG2a. How it is done:
(§3) Bicyclic peptides were evaluated with a CD16a-IgG competition assay using Perkin Elmer AlphaScreen™ technology. Acceptor beads (Perkin Elmer 6762003) were chemically conjugated via a reductive amination reaction with a mouse IgG2a mAb to link via the free amines, based the manufacturer's protocol. Briefly, beads were centrifuged and resuspended in a 130 mM sodium phosphate buffered solution pH 8.0 containing 0.2 mg mAb, 20 mM NaBH₃CN (Sigma 296945) and 0.06% P20 surfactant (Cytiva Life Sciences, BR-1000-54) and incubated on a rotary shaker at 44° C. for 22 hours. Unbound sites were then blocked by adding a final concentration of 3 mg/ml carboxymethoxylamine (CMO) (Sigma C13408), before continuing shaking incubation for a further 1 hour. Beads were washed by centrifugation and resuspension in 100 mM TRIS-HCl pH 8.0 (Sigma T2694), before a final resuspension in PBS (GIBCO 14190)+0.05% Proclin-300 (Sigma 48912-U), at 5 mg/ml and storage at 4° C. until use.
(§4) The assay was performed in white 384 well plates (PerkinElmer, 6007290) using assay buffer 25 mM HEPES (Sigma-Aldrich, H0887), 100 mM NaCl (Sigma-Aldrich, S5150), 0.5% BSA (Sigma-Aldrich, A3294), 0.05% P20 (Cytiva Life Sciences, BR-1000-54), pH7.4 for all dilutions. […] Mouse IgG2a-conjugated acceptor beads described above were added at a final concentration of 20 ug/ml and incubated at room temperature for 30 minutes under subdued lighting. Streptavidin coated donor beads (PerkinElmer, 6760002) were added a final concentration of 20 ug/ml and incubated at room temperature for 60 minutes under subdued lighting. […] Data was normalised to a high control containing all assay components except Bicyclic peptide and fit to a four-parameter non-linear regression in GraphPad Prism 8.0.2 to generate an IC50 value.
Background: Alpha assays give light when donor and acceptor beads are brought close together.

In assay [5] the target is T3, human CD16a F176 variant, biotinylated. Description: AlphaScreen competition vs mouse IgG2a. How it is done: as §3, §4

Numbered stars: 1 amine (or outer) side, 2 acyl side, 3 side chain; on linkers, the order of the positions; unused ones are H or OH. Bridge positions count the residues as written; N and C are the ends. Square brackets hold non-standard residues; d marks the D form. Primed or numbered codes have the meaning given here. Ends that are not written are not given here. * marks the point of attachment. TBMT(3) = 2,4,6-tris(bromomethyl)-s-triazine scaffold, C(c1nc(C[*:2])nc(C[*:3])n1)[*:1]; TBMT = 2,4,6-tris(bromomethyl)-s-triazine, C(c1nc(C[*:2])nc(C[*:3])n1)[*:1]; TBMT″ = 2,4,6-tris(bromomethyl)-s-triazine, scaffold on three Cys; TATA = O=C(CC[*:1])N1CN(C(=O)CC[*:2])CN(C(=O)CC[*:3])C1; Biotin = O=C1N[C@H]2[C@H](CS[C@H]2CCCCC(=O)*)N1; hPhe = N[C@@H](CCc1ccccc1)C(=O)O; Pent4ynoyl = C#CCCC(=O)*; Sar = CNCC(=O)O

What is called IC50 is the midpoint of a concentration-inhibition curve. A high value points to lower potency. As usually defined, the Kd is the equilibrium constant for the complex coming apart.

T1 sequence (P08637 17-254 limits assumed, change not shown): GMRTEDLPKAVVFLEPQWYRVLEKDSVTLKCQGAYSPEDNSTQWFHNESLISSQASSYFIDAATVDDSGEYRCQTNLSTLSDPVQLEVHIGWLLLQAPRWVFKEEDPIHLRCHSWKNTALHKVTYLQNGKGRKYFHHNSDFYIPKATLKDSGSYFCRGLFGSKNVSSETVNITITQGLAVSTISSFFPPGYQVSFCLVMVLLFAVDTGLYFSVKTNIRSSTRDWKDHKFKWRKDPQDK

Take ACRWSVEXPCGAWCA (CiRWSVE[Gla]PCiiGAWCiii, scaffold TBMT) [BCY16608]: the IC50 in assay [1] worked out at 1.8 µM.
In assay [1], ACRWSVEDPCGAWCA-NH2 (linker 2-10-14 via TBMT; also: scaffold TATA, TATB or TBMT, scaffold TBMT) [BCY14950] gave an IC50 of 2.04 µM.
Regarding ACRWSVEDPC[dA]AWCA-NH2 (linker 2-10-14 via TBMT (inferred), scaffold TBMT) [BCY14956], the IC50 in assay [1] stood at 1.41 µM. Moreover, the Kd in assay [2] stood at 2.15 µM; in assay [3], 2.66 µM.

B1: BCY15914 (peptide)
peptide: ACRWSVEDPCGAWCAK-NH2
modifications: linker 2-10-14 via TBMT (inferred); not fully specified (residue 16); also: homodimer via shared N-(amine-PEG2)-N-bis(PEG3-azide) linker
notes: homodimer of BCY13883; scaffold TBMT; also called CD16a fluorescent dimer
In the case of B1, the IC50 in assay [4] came out at 0.308 µM; in assay [5], 0.0511 µM.
Take ACRWHXSEPCGAWCA (CiRWH[4MePhe]SEPCiiGAWCiii, scaffold TBMT) [BCY20380]: the IC50 in assay [1] is 0.898 µM.
On to ACRWYFSEXCAAWCA (CiRWYFSE[Aze]Cii[dA]AWCiii, scaffold TBMT) [BCY20394], for which the Kd in assay [2] worked out at 1 µM.

B2: BCY21694 (peptide)
peptide: Ac-CRWH[hPhe]SEPCGAWC-NH2
modifications: linker 1-9-13 via TBMT(3)
SMILES: CC(=O)N[C@H]1CSCc2nc3nc(n2)CSC[C@H](NC(=O)[C@@H]2CCCN2C(=O)[C@H](CCC(=O)O)NC(=O)[C@H](CO)NC(=O)[C@H](CCc2ccccc2)NC(=O)[C@H](Cc2c[nH]cn2)NC(=O)[C@H](Cc2c[nH]c4ccccc24)NC(=O)[C@H](CCCNC(=N)N)NC1=O)C(=O)NCC(=O)N[C@@H](C)C(=O)N[C@@H](Cc1c[nH]c2ccccc12)C(=O)N[C@H](C(N)=O)CSC3
notes: scaffold TBMT
Consider B2, for which the IC50 in assay [1] is 0.166 µM. This counts as sub-micromolar.
ACRWHFSEPC[dA]AWCA-NH2 (linker 2-10-14 via TBMT″ (inferred), scaffold TBMT) [BCY20392]: the Kd in assay [2] amounted to 0.385 µM; in assay [3], 0.825 µM.

B3: BCY15915 (peptide)
peptide: ACPPTVYCHPLDCAK-NH2
modifications: linker 2-8-13 via TATA (inferred); not fully specified (residue 15); also: homodimer via shared N-(amine-PEG2)-N-bis(PEG3-azide) linker
notes: homodimer of BCY15685; scaffold TATA; also called CD16a fluorescent dimer
Regarding B3, the IC50 in assay [4] is 0.0325 µM; in assay [5], 0.0278 µM.

B4: BCY12622 (peptide)
peptide: ACPPEVWCHPLDCA[Sar][Sar][Sar][Sar][Sar][Sar]K(Biotin)-NH2
modifications: linker 2-8-13 via TATA; N-terminus assumed
SMILES: CC(C)C[C@@H]1NC(=O)[C@@H]2CCCN2C(=O)[C@H](Cc2c[nH]cn2)NC(=O)[C@@H]2CSCCC(=O)N3CN(CN(C3)C(=O)CCSC[C@H](NC(=O)[C@H](C)N)C(=O)N3CCC[C@H]3C(=O)N3CCC[C@H]3C(=O)N[C@@H](CCC(=O)O)C(=O)N[C@@H](C(C)C)C(=O)N[C@@H](Cc3c[nH]c4ccccc34)C(=O)N2)C(=O)CCSC[C@@H](C(=O)N[C@@H](C)C(=O)N(C)CC(=O)N(C)CC(=O)N(C)CC(=O)N(C)CC(=O)N(C)CC(=O)N(C)CC(=O)N[C@@H](CCCCNC(=O)CCCC[C@@H]2SC[C@@H]3NC(=O)N[C@@H]32)C(N)=O)NC(=O)[C@H](CC(=O)O)NC1=O
notes: scaffold TATA
For the molecule B4, the Kd in assay [2] was determined as 4 µM; in assay [3] it was 1 µM.
For ACVGXEELGPCSDLCA (CiVG[tBuAla]EELGPCiiSDLCiii, scaffold TBMT) [BCY16501], binding in assay [2] was put at a Kd of 3.23 µM.

B5: BCY15916 (peptide)
peptide: ACVGLEELGPCSDLCAK-NH2
modifications: linker 2-11-15 via TBMT (inferred); not fully specified (residue 17); also: homodimer via shared N-(amine-PEG2)-N-bis(PEG3-azide) linker
notes: homodimer of BCY13886; scaffold TBMT; also called CD16a fluorescent dimer
As for B5, the IC50 was determined as 0.113 µM in assay [4] and 0.0526 µM in assay [5].
With ACRWHFXEPCGAWCA (CiRWHF[HSer]EPCiiGAWCiii, scaffold TBMT) [BCY20388], the Kd came out at 1.07 µM in assay [2] and 2.98 µM in assay [3].
For the molecule ACRWHXSEPCGAWCA (CiRWH[HyP]SEPCiiGAWCiii, scaffold TBMT) [BCY20383], in assay [1], the IC50 amounted to 1.11 µM. The Kd came to 0.202 µM in assay [2] and 0.47 µM in assay [3].
Regarding ACVGLXELGPCSDLCA (CiVGL[Nle]ELGPCiiSDLCiii, scaffold TBMT) [BCY16511], the Kd in assay [2] came out at 5 µM; in assay [3], 4.02 µM.
In the case of ACRWHXSEXCGAWCA (CiRWH[HPhe]SE[Aze]CiiGAWCiii, scaffold TBMT) [BCY21689], the IC50 in assay [1] was 1.24 µM.
For the molecule ACRWHXSEPCGAWCA (CiRWH[Aze]SEPCiiGAWCiii, scaffold TBMT) [BCY20382], in assay [1], the IC50 came to 0.749 µM. The Kd in assay [3] was determined as 0.385 µM.
Molecule CRWH[hPhe]SEPCGAWC-NH2 (linker 1-9-13 via TBMT″, scaffold TBMT) [BCY21693] displayed an IC50 in assay [1] of 0.377 µM.
Consider ACRWSVEDPCGAWCAK(Pent4ynoyl)-NH2 (linker 2-10-14 via TBMT (inferred), scaffold TBMT) [BCY13883], for which, in assay [4], the IC50 came out at 2.54 µM. In addition, binding in assay [2] was characterised by a dissociation constant (Kd) of 1.52 µM.
As to ACVGLLELGPCSDLCAK(Pent4ynoyl)-NH2 (linker 2-11-15 via TBMT (inferred), scaffold TBMT) [BCY16165], the Kd in assay [2] worked out at 3.23 µM.
ACRXSVEDPCGAWCA (CiR[6ClTrp]SVEDPCiiGAWCiii, scaffold TBMT) [BCY19050] had a Kd in assay [3] of 2.15 µM.
In the case of ACRWXFSEPCGAWCA (CiRW[4FPhe]FSEPCiiGAWCiii, scaffold TBMT) [BCY20379], binding in assay [2] was put at a Kd of 1.43 µM.

For the origin of these results see US20240108738A1 (Bicycle, published 2024).
